Assay results published in publication PMC3215742.

Experiments:
[1] = molecular target: Renilla luciferase (RLuc)-fused tetherin (human) (UniProt Q10589)
[2] = molecular target: Renilla luciferase (RLuc)-fused tetherin (human) (UniProt Q10589); assay: FRET or BRET; BRET in HEK293T cells cotransfected with RLuc-tetherin and Vpu-eYFP (or eYFP alone); media with 10 µM BIT225 or DMSO from 6 h after transfection; cells collected 48 h post-transfection, washed in PBS; coelenterazine H 5 µM; Synergy 4 plate reader

UniProt Q10589, sequence (Q10589 1-161): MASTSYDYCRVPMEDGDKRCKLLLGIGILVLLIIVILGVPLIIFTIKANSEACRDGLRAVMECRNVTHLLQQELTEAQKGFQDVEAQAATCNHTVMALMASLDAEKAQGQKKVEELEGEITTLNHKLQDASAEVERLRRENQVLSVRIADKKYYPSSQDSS

Q: For “enhanced yellow fluorescent protein (eYFP)-fused Vpu (from UniProt P05919 1-82) (natural protein)”, which tetherin cell surface expression (flow cytometry) in wt infected CEM-SS cells compared to uninfected populations; not affected by 10 µM BIT225 [1] is on record?
A: 75%

Q: What about the tetherin cell surface expression (flow cytometry) in wt infected SupT1-tetherin^pos cells compared to uninfected controls; not affected by 10 µM BIT225 [1] of the same substance?
A: 70%

Q: And the BRET signal (DMSO, without BIT225) [2]?
A: 52

Q: And the BRET signal (with 10 µM BIT225) [2]?
A: 51
